Results published in US12077763B2, “RNA-based control of powdery mildew” (Greenlight Biosciences, Inc., priority 2021, dated 2024).

B1: GS1862: dsRNA trigger SEQ ID NO 149; gene target ATP-dependent RNA helicase dbp10 (nucleic acid)
chain: CTGCCTGGAATTTGACAACGCATGTAGGATTTCATTAAGTTGAGTGCTAAATCCCATTTCGAAAAGTCGATCTGCTTCATCAAATACCACATACTTGACCGAGGAAAGGTCTAATGACATTTCAATCTTAAGGTGTAAGAAGCGACCTGGCGTTGCAATAATAATATCAGGGTTGGCTGCCATAAATCTGAATTGATCTTCAAGACTATCTCCCCCTACAAGAAGAACGCATTTGAGATCAGTGCTCCGAGAAAATTCCTTAACGACTTTCAAAGTCTGCAAGGCAAGCTCTCGAGATGGGGATAGAATCAGAGCTCTAGCACCAACTCGAGCACTATGCGCCTTCAACATTTGAATCATCGGAATAACAAAAGCCGCTGTCTTTCCTGAACCGGTTCTAGCCATTCCCACGACATCTTGATGATCAAGAATCAGAGGTATTGTTTTTCTCTGGATTGGAGTCGGAACATTGAAGCCTTTTCTTTTGATGGCTCTCAAAAGATGAGCATCCAAACCCATAGATTGAAAA
B2: GS1864: dsRNA trigger SEQ ID NO 197; gene target NEDD8-conjugating enzyme UBC12 (nucleic acid)
chain: TTCCAAAAAAAAAACTCATCAGGTTTTTAGAACACAATCAAACGTTTGGCCCTTAATAGTACCGCCAGCCATACTATTTCTAACATTTCTCTTGAATATCTCACGATGATTCCGAAGATCTTCGGCGGCTTCTTTATTCAACGGATCCGAAGAATTTGGCTCTAAAAAGAGAAAAATAATTAAAGAATTCCAGTAGCGAACTAGACCAGAGTAGAGCAGGAAGGAGTATTCGATGATACCTAAAAAAAGACACACACGTTATAAAATGGCTCTAAGAATGGTATTGAGGCTAATGTATATTTTTTTCTTTGAAAAAACAAAAAACAAACAAACAAAAAAATTATGGATAATAAGTAATCCTACCACTACACTCTGTAGATTTAGGACCGGTTTCCAGTCCTCACGCAAGATATTGAGACACACGTTTCCATCAAGATCGATATTTGGATGATAAATCTTTTCTATACATTTTACTTTTGGCGCTTCATGAGGGAAGTTTTGAGAGATAGAAAAAGTGAATTGAAAAC
B3: GS1865: dsRNA trigger SEQ ID NO 183; gene target Protein transport protein SEC31 (nucleic acid)
chain: TTGAGCTTCTGGGTGTTTTGTAAGAGAGTTTGTGTTAAATAGTGTCTGTATAGAAATTTTGCCATCAAAAGACGCAGTTGCAGAAAGTGCTGGATTATGAGGATGAAATCGAGTCTGAAAGGTCCAGTTTGTAGCTTCAGGAAATTCTCCCAGGAGTTCTCCAAGCTGTGGGTTCCATAAGATAGTTCTATTATCTTTGCCACATGATAACAGCAAATTGCTGTCTTGTTGACACCATGAGATTGATAAAATTCCCTGATTATGGCCTTGTAATGTACATTCTGGTGCATTGGAATTTCGTAAATCCCAAAGAAGAATAACTGGTTTTGTATCATCAGGTGTTGCTGTTAGTAGCTTCGTTGAATTTTCTGGATCCCAAGCAATAGCTCCAACAGCTTTACGATTGTTATTCAAAGTCAATGACGCTTTTTTGGTTTTTAAGTCCCACACTGTAACAAATCCTCCAGTTCCACCAGTAGCCAAAATATGAGGAACTTTCCTATTCCAGGCAACACATTCAAGGTCAT
B4: GS1863: dsRNA trigger SEQ ID NO 167; gene target Chromatin remodeling factor mit1 (nucleic acid)
chain: TTGAGCCAAAATAAGAAACGACACGTAGCTTTGGAGCCCATTTTTTAATTTCTCGACGCCAATTAAGGCAAGTCGAATTAGGAGCTACAACTAAAAAGGGCCAACATTTCGAGTGATTTTTGACAATTGCTACGATAAAGGCAATAATTTGTATTGTCTTTCCTAAGCCCATCTCATCTGCTAGAATAACATTTTTCTTTTGATGGAAGTTATAAAGTAGCCAATTTAGACCTTCCATTTGATATTGCATCATCTTTCCTCCTGTGAGTTGTAGAGGTTGCTCTTTCATCTCAACTCTTCTTGAAAAATTTAATTTTCGGAACATCTGTAAGCGATGGTCCATAGCTGAAGTTGAGGATTGCCTAAAGTATTTTCCATCAATAAATTCATTATAGGCGGTAATAAAGCTTTGATATCTTTCGATATTCTCAATTTTTGGGGGCTCCATCCATACTGCTTCATCATAAGCAAGACCTTTGAATTTTACAAAGACTTCAGTGATCATATTAGCAGCAGCCTTGTCTATCTT
B5: GS1866: dsRNA trigger SEQ ID NO 163; gene target Proline-rich protein LAS17 (nucleic acid)
chain: ATATCGGGAGGGGTGGCGGTAATGAGGAAGGCTCTTGAGCTGCTATGAGAGATGGTGATGATTGTGCCTGATGTACTGGAAGTAATGGTAGTGATGATGTTTGAGTAACACGAAGAGATGTTGGCGATGGAGCTGGAGAAACTGAGGGATTTTTTGGTATTTGAGAGACTGTGAAAGATTGAGGTTGTGGACTATTTGGCTCTCTATTCTTTTCACAGTCTCGAGTAGTTATTTGAACACTAGGACGTAACGAGGAAGGAGGCAAAGGAGGTGTTGCTGATGCAGATACTATCGGAATTTTTGGAGGTAATTGGGGAGGAGGGAGATGCTCACTTTTAGCAAGAGGGGTTGTGACTTGGGAAGAACTTGTATGAAAAACACGAGTTAAAGGTGGTATTGTTTCACGTGGTGGTATTAAAGGCCCCGCACGATGTGAAATAAAAGATCCAGTGTTTTTCTCACCTGAAAAAGGTGGTGGTACGTTGAATTTAGAGACGCCCGATTCCGAATTTTCTTTAGAATTTTT
B6: GS1867: dsRNA trigger SEQ ID NO 126; gene target hypothetical_protein_BGT96224_Ac30495 (nucleic acid)
chain: AAACCGAAATCTACGACAGGTAAAGCATCACGCAATATAACGGCGAAAGCCCACCTGCTATCACCTACTCTCAACGTCCTACGAAAAGATGTTGTTTTCGAGAAAGCGCTCAGTGACATGCATGGCTCTTCCGATAAATACCTAGATAAAGACTCTAGCATGGAAATTAATATAGGTGATGATATCAGCGAGGGGTCGAATGCGGATCCCTTTGCAGAAGAACTCCCCACGCCATCAATAGCGCCAGATACTGCGGTAGCTACCACACTTAACTTAGCACATGGACAGGACGTGAAAGATAATCACAATGCGGCTAGTCTCATGGATGCAATCAAAGGCCTACTAGACTTGACAAATGATTACTTAAAAAATCTTGAAGCACATCACCCAGGAGTTGGGGCAGACTTCTTAGCGCTTCTAGCGGACGGAGCCTCCCGAGCTATGCGCGGAGAGCGAGTTTATTCTAATACATCAAAAGTATGCGAAGGTAGAAAACAAGGAACACAGGCAACATGGACTGA

Tested on: E. necator
Experiment: Leaf disc assay, dry inoculum (settling tower), decrease in disease severity / hyphal growth (Example 2)
Conditions: decrease in disease severity (hyphal growth) relative to untreated control, value ± SE; for % decrease =/− SE TP1: time point 1 (untreated control hyphal growth ≥50%); for % decrease =/− SE TP2: time point 2

| Molecule | % decrease =/− SE TP1 [%] | % decrease =/− SE TP2 [%] |
| --- | --- | --- |
| B1 | 26 ± 4 | 29 ± 5 |
| B2 | 5 ± 6 | 3 ± 9 |
| B3 | 5 ± 6 | 3 ± 10 |
| B4 | 6 ± 5 |  |
| B5 | 8 ± 5 | 13 ± 7 |
| B6 | 7 ± 4 |  |
